Data from patent publication US20240376151A1, “STAPLED PEPTIDES AND METHODS THEREOF” (FOG PHARMACEUTICALS, INC., priority 2022, published 2024).

Target: T1, RNF31 UBA domain (Homo sapiens, UniProt Q96EP0)
T1 construct: RNF31 UBA domain protein (residues 480-639) with N-terminal Thioredoxin-TEV-6×his-yBBr-3C tags; Thioredoxin (N, cleaved yes); made in house; host or cells: E. coli BL21 (DE3) pLysS
T1 sequence (Q96EP0 480-639): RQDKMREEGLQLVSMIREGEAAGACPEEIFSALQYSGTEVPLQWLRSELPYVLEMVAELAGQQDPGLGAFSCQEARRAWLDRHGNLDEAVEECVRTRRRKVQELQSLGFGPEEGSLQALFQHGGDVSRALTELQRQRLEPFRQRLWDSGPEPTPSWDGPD
Test: Phage Library Screening with NGS, RNF31 UBA domain
Type: binding
Conditions: for phage screen NGS read-out at Target Concentration 10 / phage screen NGS read-out at Target Concentration 30 / phage screen NGS read-out at Target Concentration 100 / phage screen NGS read-out at Target Concentration 300: no competitor; for Phage library screen NGS readout, Target Concentration 10 / Phage library screen NGS readout, Target Concentration 30 / Phage library screen NGS readout, Target Concentration 100 / Phage library screen NGS readout, Target Concentration 300 / Phage library screen NGS readout, Target Concentration 1000: RNF31 UBA domain cluster C46; for Phage library screen NGS readout, BLANK: cluster C46

[1] = target concentration 1000, first column
[2] = target concentration 1000, second column

Row | Sequence | phage screen NGS read-out at Target Concentration 10 | phage screen NGS read-out at Target Concentration 30 | phage screen NGS read-out at Target Concentration 100 | phage screen NGS read-out at Target Concentration 300 | Phage library screen NGS readout, Target Concentration 10 | Phage library screen NGS readout, Target Concentration 30 | Phage library screen NGS readout, Target Concentration 100 | Phage library screen NGS readout, Target Concentration 300 | Phage library screen NGS readout, Target Concentration 1000 [1] | Phage library screen NGS readout, Target Concentration 1000 [2] | Phage library screen NGS readout, BLANK (column 1 of 5) | Phage library screen NGS readout, BLANK (column 2 of 5) | Phage library screen NGS readout, BLANK (column 3 of 5) | Phage library screen NGS readout, BLANK (column 4 of 5) | Phage library screen NGS readout, BLANK (column 5 of 5)
1 | DPAQNHCDSAAVFCYIL | 0 | 0 | 1 | 8 |  |  |  |  |  |  |  |  |  |  | 
2 | DPALRTCLSAAVFCAVA |  |  |  |  | 0 | 6 | 10 | 18 | 15 | 25 | 0 | 0 | 1 | 0 | 1
3 | DPAAFVCEMAANDCLYT | 0 | 1 | 0 | 2 |  |  |  |  |  |  |  |  |  |  | 
4 | DPAAYLCDMAAHNCLYL | 1 | 0 | 0 | 0 |  |  |  |  |  |  |  |  |  |  | 
5 | DPAFSQCVYAAFFCREI | 1 | 0 | 2 | 20 |  |  |  |  |  |  |  |  |  |  | 
6 | DPALQHCAAAASWCWLM | 1 | 2 | 4 | 20 |  |  |  |  |  |  |  |  |  |  | 
7 | DPAMYICEMAAANCLYQ | 0 | 1 | 1 | 6 |  |  |  |  |  |  |  |  |  |  | 
8 | DPAQMFCYSAAVYCAAF |  |  |  |  | 0 | 0 | 4 | 5 | 8 | 4 | 0 | 0 | 0 | 0 | 0
9 | DPADWTCVLAAHNCLYT | 0 | 0 | 0 | 1 |  |  |  |  |  |  |  |  |  |  | 
10 | DPASSHCQSAAIWCYLM | 1 | 0 | 6 | 35 |  |  |  |  |  |  |  |  |  |  | 
11 | DPAHVRCTSAALWCNIF |  |  |  |  | 0 | 0 | 3 | 4 | 5 | 7 | 0 | 0 | 0 | 0 | 0
12 | DPAFSECVYAAIYCVHS | 0 | 0 | 0 | 7 |  |  |  |  |  |  |  |  |  |  | 
13 | DPAFSECVYAATMCLNH | 2 | 0 | 1 | 1 |  |  |  |  |  |  |  |  |  |  | 
14 | DPASASCLSAAIYCSMF |  |  |  |  | 5 | 17 | 122 | 255 | 247 | 297 | 0 | 0 | 1 | 0 | 0
15 | DPAFSLCVYAALFCEQQ | 0 | 0 | 8 | 20 |  |  |  |  |  |  |  |  |  |  | 
16 | DPAREHCAAAATWCOLL (DPAREHCAAAATWCQLL) | 1 | 0 | 1 | 28 |  |  |  |  |  |  |  |  |  |  | 
17 | DPAEQRCLSAAVYCAWH |  |  |  |  | 1 | 3 | 16 | 18 | 36 | 26 | 0 | 1 | 1 | 0 | 0
18 | DPAFSACVYAAYMCNQD | 0 | 0 | 1 | 4 |  |  |  |  |  |  |  |  |  |  | 
19 | DPAQQICLSAAVFCSIF | 0 | 0 | 4 | 10 |  |  |  |  |  |  |  |  |  |  | 
20 | DPAQLNCLSAAMYCALY |  |  |  |  | 2 | 19 | 49 | 95 | 104 | 111 | 0 | 0 | 1 | 0 | 0
21 | DPADYICYLAANNCLYH | 3 | 1 | 4 | 19 |  |  |  |  |  |  |  |  |  |  | 
22 | DPADLICQLAAANCIYL | 0 | 0 | 2 | 30 |  |  |  |  |  |  |  |  |  |  | 
23 | DPATLVCTMAANNCIYR | 0 | 0 | 0 | 1 |  |  |  |  |  |  |  |  |  |  | 
24 | DPANEHCIAAAWWCQIL | 0 | 0 | 0 | 3 |  |  |  |  |  |  |  |  |  |  | 
25 | DPATQHCLAAAMWCHLI | 0 | 0 | 1 | 3 |  |  |  |  |  |  |  |  |  |  | 
